Measurements as given in paper PMC2786213.

Columns and labels:
[1] = FRET or BRET
[2] = target: discoidin domain receptor 1 (DDR1), mouse DDR1a, tagged with cyan or yellow fluorescent protein (mouse); test: FRET or BRET

Chain of discoidin domain receptor 1 (DDR1), mouse DDR1a, tagged with cyan or yellow fluorescent protein (Q03146 20-911): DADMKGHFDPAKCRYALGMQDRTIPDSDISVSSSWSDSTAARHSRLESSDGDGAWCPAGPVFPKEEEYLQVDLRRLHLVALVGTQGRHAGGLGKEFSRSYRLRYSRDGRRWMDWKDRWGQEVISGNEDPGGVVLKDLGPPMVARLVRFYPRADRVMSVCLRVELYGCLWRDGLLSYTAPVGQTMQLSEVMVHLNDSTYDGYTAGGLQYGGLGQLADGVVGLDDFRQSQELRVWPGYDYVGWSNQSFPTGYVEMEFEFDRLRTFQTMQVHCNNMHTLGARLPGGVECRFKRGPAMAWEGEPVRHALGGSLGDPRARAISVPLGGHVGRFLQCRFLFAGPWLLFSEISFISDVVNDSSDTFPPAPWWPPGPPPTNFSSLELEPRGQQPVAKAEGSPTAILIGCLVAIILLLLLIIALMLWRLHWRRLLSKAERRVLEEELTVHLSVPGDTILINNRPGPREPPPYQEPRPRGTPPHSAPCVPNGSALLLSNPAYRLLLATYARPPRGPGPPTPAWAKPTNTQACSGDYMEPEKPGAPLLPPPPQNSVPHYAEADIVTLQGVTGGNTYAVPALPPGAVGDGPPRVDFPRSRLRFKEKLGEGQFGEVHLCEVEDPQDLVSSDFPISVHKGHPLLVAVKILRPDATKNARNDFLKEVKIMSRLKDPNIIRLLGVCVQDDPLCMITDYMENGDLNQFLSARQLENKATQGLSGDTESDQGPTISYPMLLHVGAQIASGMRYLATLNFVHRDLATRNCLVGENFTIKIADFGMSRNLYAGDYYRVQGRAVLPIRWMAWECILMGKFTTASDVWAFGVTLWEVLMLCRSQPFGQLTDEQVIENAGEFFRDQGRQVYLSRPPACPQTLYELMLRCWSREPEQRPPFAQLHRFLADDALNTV

FRET index FC/A (0 min, no collagen) [2]: 5.1
Substance: discoidin domain receptor 1 (DDR1), mouse DDR1a, tagged with cyan or yellow fluorescent protein
FRET index FC/A (collagen 5 min, aggregated ROI) [1]: 14.6 | FRET index FC/A (collagen 30 min, aggregated ROI) [1]: 15.2 | FRET index FC/A (collagen 60 min, aggregated ROI) [1]: 13.8 | FRET index FC/A (collagen 60 min, nonaggregated ROI) [1]: 5.2
